{"source": "the DeepSol protein solubility set"}
{"assay": "soluble on expression in E. coli; label from the status in PepcDB or PDB records"}
{"sequence": "GAMAGSIRSKLSAIDVRQLGTVDYRTAWQLQRELADARVAGGADTLLLLEHPAVYTAGRRTETHERPIDGTPVVDTDRGGKITWHGPGQLVGYPIIGLAEPLDVVNYVRRLEESLIQVCADLGLHAGRVDGRSGVWLPGRPARKVAAIGVRVSRATTLHGFALNCDCDLAAFTAIVPCGISDAAVTSLSAELGRTVTVDEVRATVAAAVCAALDGVLPVGDRVPSHAVPSPL", "soluble on expression in E. coli": "soluble"}
{"sequence": "SSPSLLEPLLAMGFPVHTALKALAATGRKTAEEALAWLHDHCNDPSLDDPI", "soluble on expression in E. coli": "soluble"}
{"sequence": "MLIGMSNQTVNQAVSSGVKASPHRFNRFEIKYLITEQDVPALREQLATRMSTDPLSPPGGYRVESLYFDSADLRCYTEKIEGLKFRRKLRIRTYGDGVLTPESTVSVEIKQRVNKVTQKRRLDLPFIYALALGDSTGAAVGEQVDVEKLLEISPENQHALIHEMASFAKNYRLRPIATTKYHREAFVGADAEESSRVTIDHGVSGRDRDFLLGQDLEDRPTVAQGLAVVEIKCDERVPFWLTDMTAQLEMSVIRMSKYCETIEAFHNRPASAFGAVDPIFLEHHHHHH", "soluble on expression in E. coli": "soluble"}
{"sequence": "MGSDKIHHHHHHMSLSRNSDLHMHSTASDGGYSPTELMEKCHQANLKFVALTDHDTVNGIEEAKQTAHRLGFILIPGIELSTKASGQSVHMLGYGIDWKNDTLKRRLDRQQDIRKQRLEQILLKLKAAGVPLEQDAVLRYADGGAIGRPHVAKALMDKGYVRSVQEAFEHYLAEGRPCYVKRQEYISVEQAIAWIHQAGGVAIVAHPGYYDLDDQLIGWVREYGLDGIEVYHRDHSREVVAHYEQLCKRMEAETGRRLLRTGGSDFHHESYGRTAAPLGTTRIPDQLTYELLHDLERKKTRA", "soluble on expression in E. coli": "not soluble"}
{"sequence": "MEQHPIKINKVQIRNLQIEDYAQLSQSFTRVYSDGSDVFWTHAQIKKLISIFPEGQIVTVVDDKIVGCALSIILDYDKVKNDHTYAQVTGKETFNTHNPEGNILYGIEVFIHPGYRGLRLARRMYEYRKELCETLNLKAIMFGGRIPNYHKYADKMRPKEYIARVRQREIYDPVLTFQLSNDFHVRKVMTNYLPNDEESKHYACLLQWDNIYYQPPTQEYINPKTTVRVGLVQWQMRSYKTLDDLFEQVEFFVDAVSDYKSDFVLFPEYFNAPLMSKFNDKGESQAIRGLAKYTDEIRDRFINLAISYNINIITGSMPYVKEDGLLYNVGFLCRRDGTYEMYEKMHVTPDEIKSWGLSGGKLLQTFDTDCAKVGVLICYDVEFPELSRLMADQGMQILFVPFLTDTQNAYSRVRVCAQARAIENECFVVIAGCVGNLPRVHNMDIQYAQSGVFTPCDFAFPTDGKRAEATPNTEMILVSDVDLDLLNALHTYGSVRNLKDRRNDVYEVRFKK", "soluble on expression in E. coli": "not soluble"}
{"sequence": "MDLIHEKVFVNRYHYDVRNHEWEKENGVPKTNVEVTFQLHHKDKEANNTSVVAVLQFMIVRDEFVISGIVSQMNHIQNRIVNNPKDFSQEEAEYLAAPLLDTLQRLTYEVTEIALDRPGINLEF", "soluble on expression in E. coli": "not soluble"}
{"sequence": "MRIEGELVKAKFVKRLNRFVALVEVDGVQEFAHVPNTGRLKELLVDGAAVMVRKYDKTDRKTRFGLILVRKNGIWVSIDSANAPNRIMYEALVQGKFDKFRDYSEIRREVTVLNSRFDFGLFSEGKEYYIEVKGVTLVENRQGFFPDAPTQRGTRHLEELTKIRQNGKEAGVAFIVQREDADVVRPNDRTDKNFANALRIAAEAGVDLMAYVCKVDAEQRRMDIVREIPVIIK", "soluble on expression in E. coli": "soluble"}
{"sequence": "PEIAEVVIGVGENAVKIGGEEVLHRHELTFFNPTGFFYDVWDTMDDKALEERCDRVVSYKKFYVGNFLTLDGFAVRCTSGDPKRYREVVKKVASYGKPLILVALDSECMKAALEEVADQRPLMYAATEGNWKEFLKLALEYKVPVTLRAKDLDLLKSMAVTFKQAGVKDIVLDPVTEPLGEGLKGTFERVIQLRRTAIAGQDKDVAYPIMITPIAAWLIEGDDVTKSYWEAVIASIFIVKYGDVMIFRSIDQHVVMPTITLRFNIYTDPRTPVQVEPGLRAINDPGPDDPVFITTNFALTYYTVESDLTSGGIKGWLLVLNTEGLGVEVSVAGGQFTASKVKELIEETKIEEKVNHRYLVIPGLAARLQGAIEDETGWKVLVGPMDSGRIKGWLEKNWP", "soluble on expression in E. coli": "not soluble"}
{"sequence": "MAHHHHHHEAVVTPWSVEGDVNYDKLIKDFGSHAIDEALLERIERVLGKKPHHFLRRGIFFSHRDLNLLLDVYESGQPFYLYTGRGPSSESMHMGHLIPFMFTKWLQDSFRVPLVIQMTDDEKFYFRNIPMEQVEAMTTENIKDIIAMGFDPELTFIFRDFDYMGCMYRTVAKIERAFTASQVRGCFGFAMEDNCGRWMFPAIQAAPSFSAAFPHIFPPSMGNVFCLIPQAIDQDPYFRLTRDIAPRLGYLKPAVIHSKFFPGLSGPKGKMSSSSGTAVLLTDTEKMVKDKINKHAFSGGGATKQEHFLLGANVEVDVPIQWLSFFLEDDEELARVKKEYMLGRIMTGEVKKLLINTITAITKTHQEKRKLVTDEDVQLFTSTRIMGPAKKAATQ", "soluble on expression in E. coli": "soluble"}
{"sequence": "RESLGRDVMVVVDLSGSMAEQDFVSKQSSDLGAVKKISRLEATKEVLADFVKTRKGDRLGLILFGDAAFVQTPFTADQSVWLELLNQTDVAMAGQSTHLGDAIGLAIKVFEQSSEDKASAEENAKPREKVAIVLTDGNDTGSYVEPIDAAKVAAAKDVRIHMIAMGDPRTVGEQALDMNIINRVAKESGGKAFQAINRDELEQAYDEIGELEPQLYE", "soluble on expression in E. coli": "not soluble"}
{"sequence": "MTKPRYNDVLFDDDDSVPSESVTRKSQRRKATSPGESRESSKDRLLILPSMGESYTEYVDSYLNLELLERGERETPIFLESLTRQLTQKIYELIKTKSLTADTLQQISDKYDGVVAENKLLFLQRQYYVDDEGNVRDGRNNDKIYCEPKHVYDMVMATHLMNKHLRGKTLHSFLFSHFANISHAIIDWVQQFCSKCNKKGKIKPLKEYKR", "soluble on expression in E. coli": "not soluble"}
{"sequence": "MAHHHHHHMGHKNSSNISSAPVPPPFYVLPGVPVPSLKPSNLDFSATSGKPILCAGWIAPHGNRSWSRRNVVYSSEIEIPVPQPCQVRVKIYAAGVNPADAHRTAVLPSSPEVGTSGKSRRASRHPRPPFKFPYVVGIEGAGVVESVGWAAASSGERDGSAGALTSANARDIRVGDRVAFLADLMQESGGTFCQYAVVDSDVLWKLPEVVCAPPPSTGGLVPGRLIDFVEAASLPAAAATAYIALFDKLRIETQRAIFISGASGGVGSAAVQLAHYFGLYVIASCSTPNVRYVQSLGADYVVDYTRADVVEEILTYTDNYGVDYLLECAGAFMAEAHSETVRFGGALCVLTGLLSPRSDIVFRRQLSVHYVCLGMQHQDPLARTQLQPLGELVMQLYIQGAFSVNAEQVPFVQAADALDLVASGHGRGKIVLTNFHTNEEKEERLRRRHVQLYEKAQHQYQVEETQKAAGAAAATAASEAASREAG", "soluble on expression in E. coli": "not soluble"}
{"sequence": "TLAVAAGTGAYLIDKRQKQKAKEPALPAKAEDGSEPISQRELSWDDVQPVDIIGLEVGYRLIPLVDRDQGGELLERVKGVRKKLSQDFGFLIPAVHIRDNLELTPNSYRITLMGVAVGEAEIRPDQELAINPGQVYGMIDGEPTMDPAFGLEAVWIREEQREHAQALGYTVVDSSTVLATHLSQLLTNNASQLIGHEEVQNLLEMLGRSAPKLVENFVPDQLQLGVVVKVLQNLLNEAIPIRDIRTIVQTLAEYSSKSQEPDILTAAVRISLKRLIVQEINGIEPELPVITLIPELEQILHQTMQASGGESAGIEPGLAERLQSSLSHATQEQELKGEPAVLLTSGVLRSTLAKFVKNTIPNLRVLSYQEIPDEKQIRIVQAVGN", "soluble on expression in E. coli": "not soluble"}
{"sequence": "GVNSVAARVTELTGREVAAVAERGHSHRWHLYRVELADGTPLFVKALPDDAPALDGLFRAEALGLDWLGRSFGSPVPQVAGWDDRTLAMEWVDERPPTPEAAERFGHQLAAMHLAGAESFGATWDGYIGPLPMDNTPRSTWPEFYAEQRILPYLRRAADRGALTPGDVRLVEKVLDALDHLAGDPEPPARIHGDLWNGNVLWQDDGAVVIDPAAHGGHREADLAMLALFGLPYLDRVRDAYNEVAPLAEGWRARIPLHQLHPLLVHVCLFGAAYRTTLVDTARAALRA", "soluble on expression in E. coli": "soluble"}
{"sequence": "MASVELSADVPISPQDTWDHVSELSELGEWLVIHEGWRSELPDQLGEGVQIVGVARAMGMRNRVTWRVTKWDPPHEVAMTGSGKGGTKYGVTLTVRPTKGGSALGLRLELGGRALFGPLGSAAARAVKGDVEKSLKQFAELYGLEHHHHHH", "soluble on expression in E. coli": "not soluble"}
{"sequence": "LVLKVVTVTRNLDPDDTARKKAPPPPKRAPTTALTLRSKSMTSELEELVDKDKPEEIVPASKPSRAAENMAVEPRVATIKQRPSSRCFPAGSDMNSVYERQGIAVMTPTVPGSPKAPFLGIPRGTMRRQKSIDSRIFLSGITEEERQFLAPPMLKFTRSLSMPDTSEDIPPPPQSVPPSPPPPSPTTYNCPKSPTPRVYGTIKPAFNQNSAAKVSPATRSDTVATMMREKGMYFRRELDRYSLDSEDLYSRNAGPQANFRNKRGQMPENPYSEVGKIASKAVYVPAKPARRKGMLVKQSNVEDSPEKTCSIPIPTIIVKEPSTSSSGKSSQGSSMEIDPQAPEPPSQLRPDESLTVSSPFAAAIAGAVRDREKRLEARRNSPAFLSTDLGDEDVGLGPPAPRTRPSMFPEEGDFADEDSAEQLSSPMPSATPREPENHFVGGAEASAPGEAGRPLNSTSKAQGPESSPAVPSASSGTAGPGNYVHPLTGRLLDPSSPLALALSARDRAMKESQQGPKGEAPKADLNKPLYIDTKMRPSLDAGFPTVTRQNTRGPLRRQETENKYETDLGRDRKGDDKKNMLIDIMDTSQQKSAGLLMVHTVDATKLDNALQEEDEKAEVEMKPDSSPSEVPEGVSETEGALQISAAPEPTTVPGRTIVAVGSMEEAVILPFRIPPPPLASVDLDEDFIFTEPLPPPLEFANSFDIPDDRAASVPALSDLVKQKKSDTPQSPSLNSSQPTNSADSKKPASLSNCLPASFLPPPESFDAVADSGIEEVDSRSSSDHHLETTSTISTVSSISTLSSEGGENVDTCTVYADGQAFMVDKPPVPPKPKMKPIIHKSNALYQDALVEEDVDSFVIPPPAPPPPPGSAQPGMAKVLQPRTSKLWGDVTEIKSPILSGPKANVISELNSILQQMNREKLAKPGEGLDSPMGAKSASLAPRSPEIMSTISGTRSTTVTFTVRPGTSQPITLQSRPPDYESRTSGTRRAPSPVVSPTEMNKETLPAPLSAATASPSPALSDVFSLPSQPPSGDLFGLNPAGRSRSPSPSILQQPISNKPFTTKPVHLWTKPDVADWLESLNLGEHKEAFMDNEIDGSHLPNLQKEDLIDLGVTRVGHRMNIERALKQLLDR", "soluble on expression in E. coli": "soluble"}
{"sequence": "MNDSTCPRPCLMKLDLQSSTNKLAFLKDNWPSFGQIESIDRLSETELRCTLCLLDVVLAALAKDECFCPNREIIRLVLTRTYVQNRCELCETEEIRSKLMKGFCTWEKKNGLSRKNEIRRRGISVFYGAILRMLSKVNGKQE", "soluble on expression in E. coli": "not soluble"}
{"sequence": "MSLSAELLLNVTPSETRVAMIEGGILQEIHIEREAKRGIVGNIYKGKVSRVLPGMQAAFVDIGLDKAAFLHASDIVPHTECVAESEKQQFQVRDISELVRQGQDIVVQVVKDPLGTKGARLTTDITLPSRYLVFMPGASHVGVSQRIESEAERERLKKIVSHYCDEHGGFIIRTAAEGANEKELTQDAAFLKRLWSKVIERRSKYKNRSMLYGELGLAQRILRDFVGTELTKILIDSRQEFENLKEFTSEYVPELTAKLELYHGDKPIFDMYDTENEIQRSLERKVELKSGGYLIIDQTEAMTTIDINTGAFVGRRNLEETIFNTNIEATQAIARQLRLRNLGGIIIIDFIDMASDEHRKRVLTSLETALMKDRVKTNINGFTQLGLVEMTRKRTRESIEHVLCSTCPTCEGRGSVKTVETVCFEILREITRVNRAYDADKFVVYASPAVADTLQGEESHALAELEVFIGKEVRIQAEPLYNQEQFDVVMMEGGSHHHHHH", "soluble on expression in E. coli": "soluble"}
